Reference: patent US20220195015A1 (published 2022)
Residue numbers refer to the chain shown, from its start.

B1: C536 (antibody, V domains shown)
VH: QVQLVESGGGLVKPGRSLRLSCTVSGFTFGAYAMSWFRQAPGKGLEWVGFIRSKTYGGTTEYAASLKGRFTISRDDSKSIAFLQMNSLKTEDTAVYFCSRGGYYDGSPYYWNRPDAFDIWGLGTMVTVS
VL: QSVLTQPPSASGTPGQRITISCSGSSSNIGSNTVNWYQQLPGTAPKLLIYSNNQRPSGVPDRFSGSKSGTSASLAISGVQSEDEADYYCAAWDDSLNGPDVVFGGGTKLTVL
B2: C537 (antibody, V domains shown)
VH: QLQLQESGPGLVKPSETLSLTCTVSGGAISSRNYHWGWIRQPPGKGLEWIGSIYYSGSTYYSPSLKSRVTISVDTSKNQFSLRLSSVTAADTAVYYCARLETSGWYTEDVFDIWGQGTMVTVSS
VL: DIQMTQSPSSLSASVGDRVTITCRASQSISSYLNWYQQKPGKAPKLLIYAASSLQSGVPSRFSGSGSGTDFTLTISSLLPEDFATYYCQRSYSAMYTFGQGTKLEIK
B3: C543 (antibody, V domains shown)
VH: QVQLVESGGGVVQPGRSLRLSCTASGFTFSTAGMHWVRQAPGKGLEWVAVISYDGSNKDYADSVKGRFTISRDNSKSTLYLQMNSLRPEDTAVYYCAKDTPGGDDIMTGWGLYGMDVWGQGTTVTVSS
VL: B2 VL with Q37H, S52I, S67F, L79Q, T85I, R90Q, A94T, M95P, Y96W, L104V
B4: C547 (antibody, V domains shown)
VH: B3 VH with T23A, T31S, A32Y, D59Y, S77N, P88A, M107L
VL: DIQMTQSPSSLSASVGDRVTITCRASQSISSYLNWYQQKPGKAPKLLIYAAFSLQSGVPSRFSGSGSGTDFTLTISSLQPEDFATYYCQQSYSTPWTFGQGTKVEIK
B5: C540 (antibody, V domains shown)
VH: EVQLVESGGGLVQPGGSLRLSCAASGFTFRNYDMHWVRQVAGKGLEWVSAIGTSGDTYYPDSVKGRFTISRENAKNSVYLQMNNLRAGDTAVYFCVRDREISGWTGWYFDLWGRGTLVTVSS
VL: DIQMTQSPSSLSASVGDRVTITCRASQTIHNYLNWYQQIPGKAPRLLIYATNTLQSGVPSRFSGSGSGTDFTLTITGLQPEDFATYYCQQSYSTPPITFGQGTRLEIK
B6: C544 (antibody, V domains shown)
VH: QVQLVQSGAEVKKPGASVKVSCKASGYTFSSHDINWVRQATGQGLEWVGWMNPNSGNTGSAQSFQGRVTLTRNASISTAYLELSSLRSEDTAVYFCARGFSLTWYFDLWGRGTLVTVSS
VL: SYELTQPPSVSAAPGKTARITCGGNNIGGKNVHWYQQKPGQAPVLVVFDDSDRPSGIPERFSGSNSGNTATLTISRVEAGDEADYYCQLWDSTSDHPDVVFGGGTQLTVL
B7: C539 (antibody, V domains shown)
VH: EVQLVESGGGLVQPGRSLRLSCAASGFTFDDYALHWVRQAPGKGLEWVSGISWNGDSIGYADSVKGRFTISRDNAKNSLSLQMNSLTAEDTALYYCAKGVEYSSSSNCDYWGQGTLVTVSS
VL: DIQMTQSPSSVSASVGDRVTITCRASQDISSWLAWYQQKPGKAPKLLISLASGLQSGVPSRFSGSGSETDFTLTISSLQPEDFATYYCQQTNSFPLTFGGGTKVEI
B8: C542 (antibody, V domains shown)
VH: EVQLVESGGGLVQPGGSLRLSCAASGLTVTSNYMSWVRQAPGRGLEWVSLIYPGGTTYYADSVKGRFTVSRDNSKNTLYLQMDSLRAEDTGVYYCARETLGRGGDCWGQGTLVTVSS
VL: DIQMTQSPSSLSASVGDRVTITCQASQDISNFLNWYQQKPGKAPKLLIYDASNLETGVPSRFSGSRSGTDFTFTISSLQPDDIATYYCQQYDNLPRSFGQGTKLEIK
B9: C538 (antibody, V domains shown)
VH: QLQLQESGPGLVKPSETLSLTCTVSGGSISSSSYYWAWIRQPPGKGLEWIGNIYYSGITYYSPSLKSRVTISVDTSKNQFSLKLRSVTAADTAVYYCARQHRYGSGSSELLWGQGTLVTVSS
VL: QSALTQPPSASGSPGQSVTISCTGTSSDVGSYNYVSWYQQHPGKAPKLMIYEVTKRPSGVPDRFSGSKSGNTASLTVSGLQADDEADYYCSSYAGSSNLIFGGGTKLTVL

target: SARS-CoV-2 spike protein receptor binding domain (RBD) (SARS-CoV-2, UniProt P0DTC2 319-539); test: ELISA, RBD coated on plate, mAb titrated

| Binder | EC50 [ng/mL] |
| --- | --- |
| B1 | 1.88 |
| B2 | 41.9 |
| B3 | 1.28 |
| B4 | 1.78 |
| B5 | 2.9 |
| B6 | 2.34 |
| B7 | 1.3 |
| B8 | 1.07 |
| B9 | 3.95 |
